In the Human Domainome abundance scans (Beltran et al. 2025):
± gives the uncertainty stated by the source.

B1: PMS1 protein homolog 1, residues 572 to 637; numbered along this chain, P54277 (parent)
chain: KKPMSASALFVQDHRPQFLIENPKTSLEDATLQIEELWKTLSEEEKLKYEEKATKDLERYNSQMKR

Variants of: B1
Assay: abundance fitness (aPCA) (normalised: wild type 0, dead -1); higher = more abundant; growth selection in yeast, the domain comes from the species named
Conditions: Homo sapiens

In order of falling abundance fitness:
1. KKPMSASALFVQDHRPQFLIENPKFSLEDATLQIEELWKTLSEEEKLKYEEKATKDLERYNSQMKR [T25F]  0.201 ± 0.29
2. KKPMSASALFVQDHRPQFLIENPKTSLEDATLQIEELWKTLSEEEKLKYEEKATKDLERYNSQMKP [R66P]  0.082 ± 0.1
3. KKPMSASALFVQDHRPQFLIENPKTSLEDATLQIEELWKTLSEEEKLKYEEKATKDLERYNSNMKR [Q63N]  0.075 ± 0.16
4. KKPMSASAQFVQDHRPQFLIENPKTSLEDATLQIEELWKTLSEEEKLKYEEKATKDLERYNSQMKR [L9Q]  0.032 ± 0.16
5. KKPMSASALFVQDHRPQFLIENPKTSLEDATLQIEELWKTLSEEEKLKYEEKATKDLERYNSQVKR [M64V]  0.015 ± 0.067
6. KKPMSASALFVQDHRPQFLIENPKTSLEDATLQIEELWKTLSEEEKLKYEEKADKDLERYNSQMKR [T54D]  -0.016 ± 0.16
7. KKPMSASALFVQDHRPQFLIENPKTSLEDATLQIEELWKTVSEEEKLKYEEKATKDLERYNSQMKR [L41V]  -0.023 ± 0.1
8. KKPMSASALFVQDHRPQFLIENPKTSLEDATLQIEELWKTLSEEEKLKYEEKATKDLRRYNSQMKR [E58R]  -0.025 ± 0.053
9. KKPMSASALFVQDHRPQFLIENPKTSLEDATLQIEELWKTLSMEEKLKYEEKATKDLERYNSQMKR [E43M]  -0.039 ± 0.083
10. KKPMSASALFVQDHRPQFLIENPKTSLEDATLQIEELWKTLSEEEKLKYEEKATKDLKRYNSQMKR [E58K]  -0.043 ± 0.084
11. KKPMSASALFVQDHRPQFLIENPKTSLEDATLQIEELWKTLSWEEKLKYEEKATKDLERYNSQMKR [E43W]  -0.046 ± 0.065
12. KKPMSASALFVQDHRPQFLIENPKTSLEDATLQIEELWKTQSEEEKLKYEEKATKDLERYNSQMKR [L41Q]  -0.052 ± 0.14
13. KKPMSASALFVQDHRPQFLIENPKTSLEDATLQIEELWKTLSEEEKLKYEEKATMDLERYNSQMKR [K55M]  -0.053 ± 0.089
14. KKPMSASALFVQDHRPQFLIENPKTSLEDATLQIEELWKTLSEEEKLKYEEKATKDLERYNLQMKR [S62L]  -0.071 ± 0.071
15. KKPMSASALFVQDHRPQFLIENPKTSLEDATLQIEELWKTLSEEEKLKYEEKATKDLERYNWQMKR [S62W]  -0.084 ± 0.15
16. KKPMSASALFVQDHRPQFLIENPKTSLEDATLQIEELWKTLSEEEKLKYEEKATKDLSRYNSQMKR [E58S]  -0.099 ± 0.056
17. KKPMSASALFVQDHRPQFLIENPKTSLEDATLQIEELWKTLSEEEKLKYEEAATKDLERYNSQMKR [K52A]  -0.101 ± 0.1
18. KKPMSASALFVQDHRPQFLIENPKTSLEDATLQIEELWKTLSEEEKLKYEEKATKDLERYNSQMKC [R66C]  -0.113 ± 0.16
19. KKPMSASALFVQDHRPQFLIENPKTSLEDATLQIEELWKTLSEEEKLKYEEKATKDLERYNSQNKR [M64N]  -0.144 ± 0.13
20. KKPMSASALFVQDHRPQFLIENPKTSLEDATLQIEELWKTLSEEEKLKYEEKATKDLGRYNSQMKR [E58G]  -0.158 ± 0.049
21. KKPMSASALFVQDHRPQFLIENPKTSLEDATSQIEELWKTLSEEEKLKYEEKATKDLERYNSQMKR [L32S]  -0.18 ± 0.13
22. KKPMSASALFVQDHRPQFLIENPKTGLEDATLQIEELWKTLSEEEKLKYEEKATKDLERYNSQMKR [S26G]  -0.223 ± 0.098
23. KKPMSASALFVQDHRPQFLIENPKTSLEDVTLQIEELWKTLSEEEKLKYEEKATKDLERYNSQMKR [A30V]  -0.29 ± 0.17
24. KKPMSASALFVQDHRPQFLIENPKTSGEDATLQIEELWKTLSEEEKLKYEEKATKDLERYNSQMKR [L27G]  -0.308 ± 0.12
25. KKPMSASALFVQDHRPQFLIENPKTELEDATLQIEELWKTLSEEEKLKYEEKATKDLERYNSQMKR [S26E]  -0.317 ± 0.12
26. KKPMSASALFVQDHRPQFLIENPKTSLEDATLQIEELWKTLSEEEKLKYEEWATKDLERYNSQMKR [K52W]  -0.33 ± 0.063
27. KKMMSASALFVQDHRPQFLIENPKTSLEDATLQIEELWKTLSEEEKLKYEEKATKDLERYNSQMKR [P3M]  -0.333 ± 0.4
28. KKPMSASALFVQDHRPQFLIENPKTSLEDATLQIEELWKTLSEEEKLKYEEKATPDLERYNSQMKR [K55P]  -0.339 ± 0.11
29. KKPMSASALFVQDHKPQFLIENPKTSLEDATLQIEELWKTLSEEEKLKYEEKATKDLERYNSQMKR [R15K]  -0.38 ± 0.23
30. KKPMSASALDVQDHRPQFLIENPKTSLEDATLQIEELWKTLSEEEKLKYEEKATKDLERYNSQMKR [F10D]  -0.487 ± 0.2
31. KKPMSASALFVQDHRPQFLIENPKTSLEDATLQIEELWKTNSEEEKLKYEEKATKDLERYNSQMKR [L41N]  -0.501 ± 0.12
32. KKPMSASALFVQDHRPQFLIENPKTSLEDATLQIEELWKTLSEEEKLKYEEKGTKDLERYNSQMKR [A53G]  -0.52 ± 0.057
33. KKPMSASALFVQDHRPQFLIENPKTSLEDATLQIEELWKTLVEEEKLKYEEKATKDLERYNSQMKR [S42V]  -0.56 ± 0.067
34. KKPMSASALFVQDHRPQFLIENPKTSLEDATLQIEELWKTLSEEEKLKTEEKATKDLERYNSQMKR [Y49T]  -0.614 ± 0.087
35. KKPMSASALFVQDHRPQFLIENPKTSLEDATLQIEELWKTLSEEEKLKCEEKATKDLERYNSQMKR [Y49C]  -0.621 ± 0.11
36. KKPMSASALFVQDHRPQFLIENPKTSLEDATLQIEELWKTLSEEEKLKYEEIATKDLERYNSQMKR [K52I]  -0.664 ± 0.18
37. KKPMSASALFVQDHRPQFLIENPKTYLEDATLQIEELWKTLSEEEKLKYEEKATKDLERYNSQMKR [S26Y]  -0.861 ± 0.061
38. KKPMSASALFVQDHRPQFLIENPKTSLEDATLQIEELWKTLSEEEKLKLEEKATKDLERYNSQMKR [Y49L]  -0.92 ± 0.081
39. KKPMSASALFVQDHRPQFLIENPKTSLEDATLQIEELWKTLSEEEKLKMEEKATKDLERYNSQMKR [Y49M]  -0.966 ± 0.094
40. KKPMSASALFVQDHRPQFLIENPKTSLEDATLQIEELLKTLSEEEKLKYEEKATKDLERYNSQMKR [W38L]  -1.01 ± 0.14
41. KKPMSASALFVQDHRPQFLIENPKTSLEDATLQIEELWKTLWEEEKLKYEEKATKDLERYNSQMKR [S42W]  -1.34 ± 0.091
